Experimental data: article PMC9482650, “Quantitative fragmentomics allow affinity mapping of interactomes” (Nature Communications, 2022)

What was measured:
Test in all cases: holdup assay
Parameters in all cases: key: below the threshold = too weak to quantify, mostly under pKd 3.1 to 4
[1] = biological target: AHNAK1, Q09666
[2] = biological target: T1, APBA1_1, Q02410
T1 sequence (Q02410 651-752, limits assumed, looked up): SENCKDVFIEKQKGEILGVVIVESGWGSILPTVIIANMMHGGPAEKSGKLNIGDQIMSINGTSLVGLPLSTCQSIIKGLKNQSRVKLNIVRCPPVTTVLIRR

[3] = biological target: ARHGEF12, Q9NZN5-2
Sequence of ARHGEF12, Q9NZN5-2 (Q9NZN5 other isoform, or with tags, fused parts or gaps): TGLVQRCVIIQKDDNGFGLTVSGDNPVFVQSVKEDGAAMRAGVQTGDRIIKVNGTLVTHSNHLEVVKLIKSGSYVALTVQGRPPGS

[4] = biological target: CASK, O14936
Sequence of CASK, O14936 (O14936 487-570): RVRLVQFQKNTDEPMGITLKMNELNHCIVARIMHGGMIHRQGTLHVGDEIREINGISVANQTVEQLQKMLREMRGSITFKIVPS

[5] = biological target: T2, DLG3_3, Q92796
T2 sequence (Q92796 374-475, limits assumed, looked up): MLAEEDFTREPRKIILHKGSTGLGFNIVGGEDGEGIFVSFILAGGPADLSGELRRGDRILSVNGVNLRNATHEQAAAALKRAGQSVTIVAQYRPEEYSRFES

[6] = biological target: GORASP1, Q9BQQ3
Sequence of GORASP1, Q9BQQ3 (Q9BQQ3 1-208): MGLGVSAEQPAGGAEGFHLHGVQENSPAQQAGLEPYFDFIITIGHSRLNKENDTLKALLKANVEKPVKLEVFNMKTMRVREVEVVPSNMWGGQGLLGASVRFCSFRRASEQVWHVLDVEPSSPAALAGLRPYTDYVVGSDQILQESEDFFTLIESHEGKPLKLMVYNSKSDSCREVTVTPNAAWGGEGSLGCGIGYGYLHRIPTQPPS

[7] = biological target: T3, GRIP1_2, Q9Y3R0
T3 sequence (Q9Y3R0 145-248, limits assumed, looked up): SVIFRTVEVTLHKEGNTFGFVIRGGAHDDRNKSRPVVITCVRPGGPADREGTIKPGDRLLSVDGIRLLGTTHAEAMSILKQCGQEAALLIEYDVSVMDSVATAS

[8] = biological target: T4, GRIP1_7, Q9Y3R0
T4 sequence (Q9Y3R0 999-1096, limits assumed, looked up): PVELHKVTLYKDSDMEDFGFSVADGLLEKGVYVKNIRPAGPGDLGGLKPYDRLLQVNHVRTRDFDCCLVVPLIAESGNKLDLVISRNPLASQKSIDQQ

[9] = biological target: HTRA2, O43464
Sequence of HTRA2, O43464 (O43464 355-458): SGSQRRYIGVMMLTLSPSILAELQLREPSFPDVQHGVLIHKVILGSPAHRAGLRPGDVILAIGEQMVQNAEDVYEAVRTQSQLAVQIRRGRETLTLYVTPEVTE

[10] = biological target: Inadl_1, Q8NI35
Sequence of Inadl_1, Q8NI35 (Q8NI35 113-229): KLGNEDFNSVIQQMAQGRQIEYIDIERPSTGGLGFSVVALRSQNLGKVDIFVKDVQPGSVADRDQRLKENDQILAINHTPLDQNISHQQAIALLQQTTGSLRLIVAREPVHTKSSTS

[11] = biological target: Inadl_8, Q8NI35
Sequence of Inadl_8, Q8NI35 (Q8NI35 1425-1530): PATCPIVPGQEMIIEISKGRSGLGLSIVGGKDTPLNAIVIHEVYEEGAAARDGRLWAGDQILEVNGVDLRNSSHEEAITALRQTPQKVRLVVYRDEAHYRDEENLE

[12] = biological target: T5, LIN7B, Q9HAP6
T5 sequence (Q9HAP6 88-185, limits assumed, looked up): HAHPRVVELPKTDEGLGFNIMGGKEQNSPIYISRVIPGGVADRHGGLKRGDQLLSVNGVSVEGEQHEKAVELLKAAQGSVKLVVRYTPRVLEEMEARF

[13] = biological target: T6, LIN7C, Q9NUP9
T6 sequence (Q9NUP9 88-185, limits assumed, looked up): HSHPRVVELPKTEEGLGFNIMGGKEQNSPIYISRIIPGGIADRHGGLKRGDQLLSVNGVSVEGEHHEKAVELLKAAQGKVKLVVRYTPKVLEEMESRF

[14] = biological target: LNX1_1, Q8TBB1
Sequence of LNX1_1, Q8TBB1 (Q8TBB1 261-371): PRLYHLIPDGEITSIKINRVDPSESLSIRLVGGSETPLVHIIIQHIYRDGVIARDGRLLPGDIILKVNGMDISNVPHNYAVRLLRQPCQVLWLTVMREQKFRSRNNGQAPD

[15] = biological target: MAGI2_3, Q86UL8
Sequence of MAGI2_3, Q86UL8 (Q86UL8 600-682): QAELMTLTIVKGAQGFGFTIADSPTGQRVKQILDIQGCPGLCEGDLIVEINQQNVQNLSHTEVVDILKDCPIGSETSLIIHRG

[16] = biological target: MAGI2_5, Q86UL8
Sequence of MAGI2_5, Q86UL8 (Q86UL8 915-1017): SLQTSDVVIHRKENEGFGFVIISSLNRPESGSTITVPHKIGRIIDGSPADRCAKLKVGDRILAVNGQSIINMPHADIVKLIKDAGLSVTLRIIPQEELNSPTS

[17] = biological target: MAGI3_2, Q5TCQ9
Sequence of MAGI3_2, Q5TCQ9 (Q5TCQ9 398-503): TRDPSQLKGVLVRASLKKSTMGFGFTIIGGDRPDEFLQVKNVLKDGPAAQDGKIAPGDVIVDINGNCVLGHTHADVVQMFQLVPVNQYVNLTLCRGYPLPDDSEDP

[18] = biological target: MAST1, Q9Y2H9
Sequence of MAST1, Q9Y2H9 (Q9Y2H9 962-1065): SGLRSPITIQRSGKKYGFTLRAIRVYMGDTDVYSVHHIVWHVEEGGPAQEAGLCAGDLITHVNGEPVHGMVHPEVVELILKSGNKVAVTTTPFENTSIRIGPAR

[19] = biological target: MAST2, Q6P0Q8
Sequence of MAST2, Q6P0Q8 (Q6P0Q8 1099-1202): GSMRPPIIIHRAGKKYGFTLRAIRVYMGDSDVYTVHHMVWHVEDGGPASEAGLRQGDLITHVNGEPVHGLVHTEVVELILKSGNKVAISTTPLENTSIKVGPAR

[20] = biological target: NHERF2_2, Q15599
Sequence of NHERF2_2, Q15599 (Q15599 142-238): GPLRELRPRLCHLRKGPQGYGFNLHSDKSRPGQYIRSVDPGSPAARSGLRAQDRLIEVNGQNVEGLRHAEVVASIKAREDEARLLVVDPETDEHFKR

[21] = biological target: NHERF4_1, Q86UT5-2
Sequence of NHERF4_1, Q86UT5-2 (Q86UT5 other isoform, or with tags, fused parts or gaps): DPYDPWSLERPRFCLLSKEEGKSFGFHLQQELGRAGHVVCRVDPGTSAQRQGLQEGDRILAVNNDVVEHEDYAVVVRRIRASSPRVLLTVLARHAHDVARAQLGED

[22] = biological target: PARD3_3, Q8TEW0
Sequence of PARD3_3, Q8TEW0 (Q8TEW0 582-685): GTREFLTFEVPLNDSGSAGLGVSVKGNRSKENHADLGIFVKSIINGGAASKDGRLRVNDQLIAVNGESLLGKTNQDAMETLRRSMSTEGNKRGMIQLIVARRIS

[23] = biological target: PDLIM1, O00151
Sequence of PDLIM1, O00151 (O00151 1-87): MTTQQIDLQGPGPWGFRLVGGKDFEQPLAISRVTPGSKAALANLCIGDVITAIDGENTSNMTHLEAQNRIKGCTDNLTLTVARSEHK

[24] = biological target: PTPN3, P26045
Sequence of PTPN3, P26045 (P26045 505-587): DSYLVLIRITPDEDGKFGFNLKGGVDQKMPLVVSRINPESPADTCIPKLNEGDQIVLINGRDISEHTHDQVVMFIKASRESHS

[25] = biological target: SCRIB_1, Q14160
Sequence of SCRIB_1, Q14160 (Q14160 718-814): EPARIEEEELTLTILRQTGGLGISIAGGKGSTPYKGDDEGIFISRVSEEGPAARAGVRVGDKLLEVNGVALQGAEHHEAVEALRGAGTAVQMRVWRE

[26] = biological target: SCRIB_2, Q14160
Sequence of SCRIB_2, Q14160 (Q14160 857-960): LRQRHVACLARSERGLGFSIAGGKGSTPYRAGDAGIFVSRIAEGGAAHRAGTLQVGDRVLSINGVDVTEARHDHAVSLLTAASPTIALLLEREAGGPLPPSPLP

[27] = biological target: SCRIB_3, Q14160
Sequence of SCRIB_3, Q14160 (Q14160 999-1103): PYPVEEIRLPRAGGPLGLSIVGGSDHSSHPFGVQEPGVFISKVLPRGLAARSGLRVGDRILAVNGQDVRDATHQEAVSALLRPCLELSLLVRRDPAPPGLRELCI

[28] = biological target: T7, SNTG2, Q9NY99
T7 sequence (Q9NY99 68-166, limits assumed, looked up): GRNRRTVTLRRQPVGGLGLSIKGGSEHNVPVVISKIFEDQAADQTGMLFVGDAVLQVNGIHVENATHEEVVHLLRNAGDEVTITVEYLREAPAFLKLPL

[29] = biological target: SNX27, Q96L92
[30] = biological target: TJP1_2, Q07157
Sequence of TJP1_2, Q07157 (Q07157 181-274): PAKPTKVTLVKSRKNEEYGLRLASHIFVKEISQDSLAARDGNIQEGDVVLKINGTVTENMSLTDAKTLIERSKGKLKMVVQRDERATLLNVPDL

[31] = biological target: T8, TJP3_3, O95049
T8 sequence (O95049 375-456, limits assumed, looked up): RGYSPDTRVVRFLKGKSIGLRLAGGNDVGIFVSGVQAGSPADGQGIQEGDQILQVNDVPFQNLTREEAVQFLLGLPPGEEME

[32] = plain residues with an end cap or a label only (N-terminal biotin on a linker: none)
[33] = plain residues with an end cap or a label only (N-terminal biotin on a linker: ttds)
[34] = plain residues with an end cap or a label only (N-terminal biotin on a linker: ado-ado)

Sequence of AHNAK1, Q09666 (Q09666 4-100): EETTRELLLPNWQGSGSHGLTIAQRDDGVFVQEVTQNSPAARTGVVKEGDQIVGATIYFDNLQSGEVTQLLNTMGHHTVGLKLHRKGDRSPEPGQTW

## DSKPPLPPDEWV [MERS-E, K9N5R3]
[1]; [32]
  pKd: below the threshold
[2]; [32]
  pKd: 3.53
[3]; [32]
  pKd: 3.76
[4]; [32]
  pKd: 3.48
[5]; [32]
  pKd: 3.58
[6]; [32]
  pKd: 4.29
[7]; [32]
  pKd: 3.62
[8]; [32]
  pKd: 3.88
[9]; [32]
  pKd: 4.2
[10]; [32]
  pKd: 3.61
[11]; [32]
  pKd: 3.55
[12]; [32]
  pKd: below the threshold
[13]; [32]
  pKd: below the threshold
[14]; [32]
  pKd: below the threshold
[15]; [32]
  pKd: below the threshold
[16]; [32]
  pKd: below the threshold
[17]; [32]
  pKd: below the threshold
[18]; [32]
  pKd: 3.91
[19]; [32]
  pKd: 3.66
[20]; [32]
  pKd: below the threshold
[21]; [32]
  pKd: below the threshold
[22]; [32]
  pKd: 4.07
[23]; [32]
  pKd: below the threshold
[24]; [32]
  pKd: 3.87
[25]; [32]
  pKd: 4.52
[26]; [32]
  pKd: 3.58
[27]; [32]
  pKd: 3.9
[28]; [32]
  pKd: 3.59
[29]; [32]
  pKd: 4.56
[30]; [32]
  pKd: 4.16
[31]; [32]
  pKd: 4.83

## HRTCYLVTQL [ASIC3, Q9UHC3]
[1]; [33]
  pKd: 3.33
[2]; [33]
  pKd: below the threshold
[3]; [33]
  pKd: 5.63
[4]; [33]
  pKd: below the threshold
[5]; [33]
  pKd: 3.49
[6]; [33]
  pKd: 3.93
[7]; [33]
  pKd: below the threshold
[8]; [33]
  pKd: below the threshold
[9]; [33]
  pKd: 3.91
[10]; [33]
  pKd: 3.52
[11]; [33]
  pKd: 3.8
[12]; [33]
  pKd: 3.38
[13]; [33]
  pKd: 3.41
[14]; [33]
  pKd: 4.03
[15]; [33]
  pKd: 3.47
[16]; [33]
  pKd: 4.63
[17]; [33]
  pKd: 4.3
[18]; [33]
  pKd: 4
[19]; [33]
  pKd: 5.24
[20]; [33]
  pKd: 4.5
[21]; [33]
  pKd: 4.49
[22]; [33]
  pKd: 3.76
[23]; [33]
  pKd: 3.46
[24]; [33]
  pKd: 4.48
[25]; [33]
  pKd: 5.54
[26]; [33]
  pKd: 3.73
[27]; [33]
  pKd: 4.85
[28]; [33]
  pKd: 3.75
[29]; [33]
  pKd: 5.11
[30]; [33]
  pKd: below the threshold
[31]; [33]
  pKd: 3.43

## LHLHGTGIQV [EPHA7, Q15375]
[1]; [34]
  pKd: below the threshold
[2]; [34]
  pKd: below the threshold
[3]; [34]
  pKd: 4.19
[4]; [34]
  pKd: below the threshold
[5]; [34]
  pKd: 3.51
[6]; [34]
  pKd: 4.23
[7]; [34]
  pKd: below the threshold
[8]; [34]
  pKd: 3.49
[9]; [34]
  pKd: below the threshold
[10]; [34]
  pKd: below the threshold
[11]; [34]
  pKd: below the threshold
[12]; [34]
  pKd: below the threshold
[13]; [34]
  pKd: 4.08
[14]; [34]
  pKd: below the threshold
[15]; [34]
  pKd: 3.63
[16]; [34]
  pKd: below the threshold
[17]; [34]
  pKd: 3.55
[18]; [34]
  pKd: below the threshold
[19]; [34]
  pKd: 4.63
[20]; [34]
  pKd: below the threshold
[21]; [34]
  pKd: 3.85
[22]; [34]
  pKd: 3.64
[23]; [34]
  pKd: below the threshold
[24]; [34]
  pKd: 4.06
[25]; [34]
  pKd: below the threshold
[26]; [34]
  pKd: below the threshold
[27]; [34]
  pKd: 3.53
[28]; [34]
  pKd: below the threshold
[29]; [34]
  pKd: 3.53
[30]; [34]
  pKd: 4.43
[31]; [34]
  pKd: below the threshold
